In US20240317865A1 (MOMENTA PHARMACEUTICALS, published 2024):
One block for each binder: values may come before it.

What was measured:
[1] = biological target: T1, α11β1 on human myofibroblasts (MF) (human, UniProt Q9UKX5 23-1188; P05556 21-798); experiment: FACS (PE) on human myofibroblasts, histogram
T1 construct: whole, on cells; Human pulmonary fibroblasts treated with TGFβ

[2] = biological target: T2, recombinant human integrin alpha 11 beta 1 (α11β1) (human, UniProt Q9UKX5 23-1141; P05556 21-728); experiment: ELISA on plate-coated recombinant human α11β1, OD 450nm
T2 construct: Coated in ELISA; also called human α11β1; soluble human α11β1
T2 sequence (Q9UKX5 23-1141 limits assumed, chain 1 of 2): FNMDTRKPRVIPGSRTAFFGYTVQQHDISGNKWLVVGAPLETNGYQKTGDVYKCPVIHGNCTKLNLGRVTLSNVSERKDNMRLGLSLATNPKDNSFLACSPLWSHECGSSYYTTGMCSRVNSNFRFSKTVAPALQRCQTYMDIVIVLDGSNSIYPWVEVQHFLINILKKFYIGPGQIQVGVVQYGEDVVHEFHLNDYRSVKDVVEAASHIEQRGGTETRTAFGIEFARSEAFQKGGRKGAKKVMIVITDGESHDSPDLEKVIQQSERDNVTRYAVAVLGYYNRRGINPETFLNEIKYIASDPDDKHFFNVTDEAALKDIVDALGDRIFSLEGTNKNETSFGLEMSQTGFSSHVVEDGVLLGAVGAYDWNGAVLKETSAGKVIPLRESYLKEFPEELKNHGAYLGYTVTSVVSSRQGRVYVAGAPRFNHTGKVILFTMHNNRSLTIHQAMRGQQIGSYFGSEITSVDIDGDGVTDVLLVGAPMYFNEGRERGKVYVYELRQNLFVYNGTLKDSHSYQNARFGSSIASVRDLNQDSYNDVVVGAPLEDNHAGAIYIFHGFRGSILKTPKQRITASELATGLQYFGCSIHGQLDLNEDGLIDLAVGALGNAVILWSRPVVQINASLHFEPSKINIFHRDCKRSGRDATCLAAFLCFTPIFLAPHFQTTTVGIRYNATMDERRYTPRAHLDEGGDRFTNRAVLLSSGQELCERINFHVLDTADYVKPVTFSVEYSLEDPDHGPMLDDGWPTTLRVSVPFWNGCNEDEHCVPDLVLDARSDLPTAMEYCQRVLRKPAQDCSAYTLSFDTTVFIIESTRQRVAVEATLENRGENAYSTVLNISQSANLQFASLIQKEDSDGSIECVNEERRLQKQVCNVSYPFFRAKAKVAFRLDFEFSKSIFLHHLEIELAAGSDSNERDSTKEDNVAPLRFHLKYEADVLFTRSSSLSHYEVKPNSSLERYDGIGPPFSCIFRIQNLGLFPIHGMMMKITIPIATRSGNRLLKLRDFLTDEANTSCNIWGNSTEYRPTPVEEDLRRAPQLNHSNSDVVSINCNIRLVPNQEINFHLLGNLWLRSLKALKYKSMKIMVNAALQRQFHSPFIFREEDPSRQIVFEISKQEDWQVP
T2 sequence (P05556 21-728 limits assumed, chain 2 of 2): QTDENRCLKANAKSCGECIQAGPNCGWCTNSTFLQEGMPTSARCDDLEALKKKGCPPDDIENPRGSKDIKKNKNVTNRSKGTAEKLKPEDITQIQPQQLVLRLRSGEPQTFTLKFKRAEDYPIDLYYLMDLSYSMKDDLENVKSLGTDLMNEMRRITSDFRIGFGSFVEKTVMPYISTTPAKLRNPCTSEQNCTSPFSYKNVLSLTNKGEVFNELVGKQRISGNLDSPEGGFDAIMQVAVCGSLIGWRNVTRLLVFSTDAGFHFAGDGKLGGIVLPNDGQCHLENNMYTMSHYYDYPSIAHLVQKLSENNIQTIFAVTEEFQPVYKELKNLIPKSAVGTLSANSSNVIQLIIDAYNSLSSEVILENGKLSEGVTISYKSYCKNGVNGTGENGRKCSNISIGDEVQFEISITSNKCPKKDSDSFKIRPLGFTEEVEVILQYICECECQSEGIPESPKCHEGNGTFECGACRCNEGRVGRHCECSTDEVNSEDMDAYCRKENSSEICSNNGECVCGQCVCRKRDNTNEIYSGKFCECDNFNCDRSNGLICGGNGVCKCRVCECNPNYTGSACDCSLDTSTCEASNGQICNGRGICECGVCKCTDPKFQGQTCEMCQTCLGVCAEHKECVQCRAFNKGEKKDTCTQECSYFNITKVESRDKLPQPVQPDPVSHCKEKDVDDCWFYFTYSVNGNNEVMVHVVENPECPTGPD
Protocol: 0.25 μg/mL of target antigen (recombinant human or mouse α11β1) was plated in a 96-well plate over night at 4° C. Plates were washed (PBS with 0.1% Tween-20), blocked (PBS with 2% BSA and 0.05% Tween-20) for 1 hour at room temperature and incubated with a range of antibody concentrations for 1 hour at room temperature. Subsequently, plates were washed and incubated with biotinylated anti-rabbit/mouse/human IgG in a 1:1000 dilution buffer and incubated for 1 hour at room temperature. After washing the plates, Streptavidin HRP was added at 1:200 in dilution buffer and incubated for 1 hour at room temperature. Ultra TMB ELISA substrate solution was added and the plates incubated for 5 minutes on a plate shaker. The reaction was stopped by adding stop solution to each well and plates were read at 450 nm.

[3] = biological target: α11β1 on CHO-K1 cells stably expressing human α11 (CHO-K1 hu α11) (human, UniProt Q9UKX5 23-1188); experiment: cell-based or functional assay
Chain of α11β1 on CHO-K1 cells stably expressing human α11 (CHO-K1 hu α11) (Q9UKX5 23-1188): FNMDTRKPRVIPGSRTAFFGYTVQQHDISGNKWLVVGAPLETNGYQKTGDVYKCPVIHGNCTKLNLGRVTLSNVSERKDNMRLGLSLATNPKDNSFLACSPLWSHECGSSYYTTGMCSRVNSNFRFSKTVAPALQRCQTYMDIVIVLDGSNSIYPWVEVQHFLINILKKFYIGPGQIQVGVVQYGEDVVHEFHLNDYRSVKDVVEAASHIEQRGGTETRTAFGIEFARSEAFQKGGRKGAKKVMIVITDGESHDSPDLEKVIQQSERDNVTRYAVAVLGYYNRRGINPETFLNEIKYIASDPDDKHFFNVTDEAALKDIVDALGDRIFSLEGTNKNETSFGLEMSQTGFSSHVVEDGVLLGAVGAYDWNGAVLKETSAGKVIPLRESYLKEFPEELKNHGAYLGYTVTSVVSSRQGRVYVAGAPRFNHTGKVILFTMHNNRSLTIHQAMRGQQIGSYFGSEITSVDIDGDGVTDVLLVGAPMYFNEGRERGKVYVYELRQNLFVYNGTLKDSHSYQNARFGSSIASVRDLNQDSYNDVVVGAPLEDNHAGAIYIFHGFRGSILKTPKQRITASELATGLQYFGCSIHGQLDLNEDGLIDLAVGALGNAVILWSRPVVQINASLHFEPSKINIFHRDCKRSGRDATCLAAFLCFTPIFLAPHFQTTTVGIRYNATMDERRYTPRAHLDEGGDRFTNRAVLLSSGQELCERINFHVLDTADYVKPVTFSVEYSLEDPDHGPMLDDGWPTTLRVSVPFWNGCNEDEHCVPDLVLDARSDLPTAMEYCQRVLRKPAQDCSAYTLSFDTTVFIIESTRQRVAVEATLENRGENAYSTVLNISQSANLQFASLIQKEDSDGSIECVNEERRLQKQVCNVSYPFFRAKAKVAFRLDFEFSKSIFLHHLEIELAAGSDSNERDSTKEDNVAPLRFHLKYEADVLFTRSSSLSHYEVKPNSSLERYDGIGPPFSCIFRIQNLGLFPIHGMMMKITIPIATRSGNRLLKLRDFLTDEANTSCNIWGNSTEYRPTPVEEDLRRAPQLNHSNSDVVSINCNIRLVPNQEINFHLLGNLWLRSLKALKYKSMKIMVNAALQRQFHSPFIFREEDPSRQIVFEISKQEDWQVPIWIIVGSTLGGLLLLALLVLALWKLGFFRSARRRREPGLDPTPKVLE

[4] = biological target: T2, recombinant human integrin alpha 11 …; experiment: SPR (Biacore T200), HIS-tagged human α11β1 captured by anti-HIS antibody, single-cycle kinetics, 1:1 Langmuir fit
Protocol: The affinity of antibodies for human α11β1 was measured by surface plasmon resonance assay (SPR). Affinity was measured at pH 7.6 and 25° C. with a Biacore T200 instrument. Anti-HIS antibody was immobilized on the SPR sensor surface using EDC/NHS covalent attachment. HIS-tagged human α11β1 was captured on the sensor surface and a single-cycle kinetics assay was used. Increasing concentrations of test antibody were injected in series over the sensor-bound α11β1. Dissociation was monitored for 1000 seconds. A sensor surface with only anti-HIS antibody and a series of blank injections were used to double-reference subtract the data. A 1:1 Langmuir model was fit to the data to estimate the kinetic association and dissociation constants. The affinity (equilibrium dissociation constant) of the interaction was calculated by dividing the kinetic dissociation constant by the kinetic association constant. Between injection cycles α11β1 and bound antibody were removed with an injection of 10 mM glycine at pH 1.5.
The binding affinity of antibodies for the α11β1 Headpiece and α11β1 I Domain as measured by SPR is shown in FIG. 10A and FIG. 10B, respectively.

T1 sequence (Q9UKX5 23-1188, chain 1 of 2): as the sequence (Q9UKX5 23-1188) above
T1 sequence (P05556 21-798, chain 2 of 2): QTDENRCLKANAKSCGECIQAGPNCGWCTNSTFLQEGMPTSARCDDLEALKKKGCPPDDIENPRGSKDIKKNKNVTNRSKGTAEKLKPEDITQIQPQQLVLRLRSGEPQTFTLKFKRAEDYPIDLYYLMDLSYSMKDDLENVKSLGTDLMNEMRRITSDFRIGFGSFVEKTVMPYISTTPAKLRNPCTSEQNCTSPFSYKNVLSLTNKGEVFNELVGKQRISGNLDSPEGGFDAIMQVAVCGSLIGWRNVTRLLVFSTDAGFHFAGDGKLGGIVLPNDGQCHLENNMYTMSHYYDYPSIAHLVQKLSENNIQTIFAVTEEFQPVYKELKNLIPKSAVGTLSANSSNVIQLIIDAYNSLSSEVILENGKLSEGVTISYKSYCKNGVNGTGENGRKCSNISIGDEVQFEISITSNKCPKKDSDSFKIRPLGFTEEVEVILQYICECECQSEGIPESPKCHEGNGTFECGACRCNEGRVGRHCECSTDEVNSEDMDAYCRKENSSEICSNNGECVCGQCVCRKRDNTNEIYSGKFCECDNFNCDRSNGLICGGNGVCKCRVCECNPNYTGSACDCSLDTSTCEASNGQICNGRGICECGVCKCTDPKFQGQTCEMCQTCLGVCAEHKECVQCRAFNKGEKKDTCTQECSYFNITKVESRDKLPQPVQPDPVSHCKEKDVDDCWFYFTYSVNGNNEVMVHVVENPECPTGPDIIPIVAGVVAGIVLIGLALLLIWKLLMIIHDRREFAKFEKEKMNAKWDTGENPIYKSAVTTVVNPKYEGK

binding result [1]: binds | binding result [2]: binds
B1: 8-J17 (antibody, V domains shown)
VH: QVQLQQSGAELAKPGASVKMSCKASGYTFTNYWMHWVKQRPGQGLEWIGYINPNNGYTEYNQRFKDKATLTADRSSTTAYMQLSSLTSEDSAVYYCARSDIITTDYWGQGTTLTVSS
VL: DVVMTQTPLSLPVSLGDQASISCRSSQSLVYSNGNTYLHWYLQKPGQSPKLLIYKVSNRFSGVPDRFSGSGSGTDFTLKISRVEAEDLGVYFCSQSTHVPWTFGGGTKLEIK
notes: mouse hybridoma IgG

IC50, inhibition of adhesion of CHO-α11 cells to type I collagen, dose curve [3]: 0.39 nM | koff [4]: 0.000224 s⁻¹ | kon [4]: 4.68e+06 M⁻¹ s⁻¹
B2: A11B1_16E10 (antibody, V domains shown)
VH: QSLEESGGDLVKPGASLTLTCRVSGFSFSSSYYMCWVRQAPGKGLEWIACIGTTRGSTYYATWAKGRFTISKISSTTVTLQMTSLTDADTATYFCARDATGYRINTIGLYFNLWGPGTLVTVSS
VL: AFELTQTPSSVEAAVGGTPTIKCQASQTIYSYLSWYQQKPGQPPKLLIYEASKLASGVPSRFSGSGSGTDYTLTISDLECADAATYYCQSYHGTASTEYNTFGGGTEVVVRG
notes: rabbit monoclonal, recombinantly produced in HEK cells; full chains
